Assay [1] concerns the target HIV-1 envelope glycoprotein gp120 (HIV-1) (UniProt P04578).
Assay [2] concerns the target HIV-1 envelope glycoprotein gp41 (HIV-1) (UniProt P04578).

We go through 4 substances from article PMC6430086.

With “Dioclea lasiocarpa lectin (natural protein)”, the EC50 to inhibit giant cell (syncytium) formation in SupT1 + HUT-78/HIV-1 co-cultures (fusion by gp120/gp41-CD4 interaction) in assay [1] and in assay [2] was 46 nM in each case.
As to “Canavalia brasiliensis lectin (from UniProt P55915 1-237) (natural protein)”, the EC50 to inhibit giant cell (syncytium) formation in SupT1 + HUT-78/HIV-1 co-cultures (fusion by gp120/gp41-CD4 interaction) in assay [1] and in assay [2] was 75 nM in each case.
As to “Canavalia maritima lectin (natural protein)”, the EC50 to inhibit giant cell (syncytium) formation in SupT1 + HUT-78/HIV-1 co-cultures (fusion by gp120/gp41-CD4 interaction) in assay [1] and in assay [2] was 75 nM in each case.
For the substance “Dioclea sclerocarpa lectin (natural protein)”, the EC50 to inhibit giant cell (syncytium) formation in SupT1 + HUT-78/HIV-1 co-cultures (fusion by gp120/gp41-CD4 interaction) in assay [1] and in assay [2] was 63 nM throughout.
